Laboratory results reported in patent US20170253670A1 (Hoffmann-La Roche, published 2017).
Several values for one entry are separate records, joined by “and”; a condition that tells them apart may be missing. Identical values can stand only once.

Legend:
[1] = biological target: T1, human BCMA on myeloma cells (H929, U266) (human, UniProt Q02223 1-184); assay: flow cytometry, H929 cells
T1 construct: whole, on cells
T1 sequence (looked up): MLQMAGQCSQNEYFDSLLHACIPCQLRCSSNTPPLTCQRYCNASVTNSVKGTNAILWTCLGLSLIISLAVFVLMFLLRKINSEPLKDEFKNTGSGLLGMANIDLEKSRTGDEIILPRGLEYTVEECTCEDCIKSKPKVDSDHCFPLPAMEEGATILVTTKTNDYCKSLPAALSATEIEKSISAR
Procedure: (§1) Briefly, cultured cells are harvested, counted and cell viability was evaluated using ViCell. Viable cells are then adjusted to 2×10⁶ cells per ml in BSA-containing FACS Stain Buffer (BD Biosciences). 100 μl of this cell suspension were further aliquoted per well into a round-bottom 96-well plate and incubated with 30 μl of the BCMA-TCB CLC antibodies or corresponding TCB control for 30 min at 4° c. All BCMA-TCB CLC antibodies (and TCB controls) were titrated and analyzed in final concentration range between 0.12-500 nM. […] Cells were then washed twice with Stain Buffer (BD Biosciences), fixed using 100 ul BD Fixation buffer per well (#BD Biosciences, 554655) at 4° C. for 20 min, resuspended in 120 μl FACS buffer and analyzed using BD FACS CantoII.

[2] = biological target: T1, human BCMA on myeloma cells (H929, U266); assay: cell-based or functional assay
[3] = biological target: T2, recombinant murine BCMA Fc(kih) (murine, UniProt O88472 2-49, biotinylated at the avi-tag of the Fc knob chain (not in the letters)); assay: SPR Biacore, binder captured via anti-Fab, BCMA-Fc analyte
T2 construct: also called muBCMA Fc(kih); not shown: human IgG1 hinge-Fc(knob)-avi and the unfused Fc(hole) chain
T2 chain: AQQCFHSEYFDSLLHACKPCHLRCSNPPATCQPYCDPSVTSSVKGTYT

[4] = biological target: T3, recombinant human BCMA Fc(kih) (human, UniProt Q02223 4-53, biotin on avi-tag where coupled to SA chip ; biotin on the avi-tag of the Fc-knob chain where coupled to the SA chip (tag not in the letters)); assay: as above
T3 construct: also called huBCMA Fc(kih); huBCMA; not shown: human IgG1 hinge-Fc(knob)-avi fused to the ECD, and the unfused Fc(hole) chain
T3 chain: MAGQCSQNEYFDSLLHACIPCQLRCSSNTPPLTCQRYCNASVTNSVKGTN

[5] = biological target: T1, human BCMA on myeloma cells (H929, U266); assay: cell-based or functional assay; remark: listed apart in the source
Fc fused huTACI-R = biological target: T4, Fc fused huTACI-R (human, UniProt O14836 2-166, limits assumed); assay: SPR (Biacore T200), Fc fused huTACI-R on CM5 chip, IgG as analyte, reference-subtracted
T4 construct: also called human TACI receptor
T4 sequence (looked up): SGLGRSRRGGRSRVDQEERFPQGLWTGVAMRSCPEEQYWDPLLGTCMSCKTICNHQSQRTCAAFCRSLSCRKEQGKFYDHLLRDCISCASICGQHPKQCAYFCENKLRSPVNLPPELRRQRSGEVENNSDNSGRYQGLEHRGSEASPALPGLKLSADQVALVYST

[6] = biological target: T2, recombinant murine BCMA Fc(kih); assay: SPR Biacore, bivalent avidity, BCMA-Fc on chip (Experiment 3)
Procedure: (§2) Assessment of binding of anti-BCMA antibodies to recombinant BCMA by surface plasmon resonance (SPR) as follow. All SPR experiments were performed on a Biacore T200 at 25° C. with HBS-EP as running buffer (0.01 M HEPES pH 7.4, 0.15 M NaCl, 3 mM EDTA, 0.005% Surfactant P20, Biacore, Freiburg/Germany). The avidity of the interaction between anti-BCMA antibodies and recombinant BCMA Fc(kih) (human, cynomolgus and murine) was determined (Tables 38-40). Biotinylated recombinant human, cynomolgus and murine BCMA Fc(kih) were directly coupled on a SA chip following instructions (Biacore, Freiburg/Germany). The immobilization level ranged from 80 to 120 RU. […] The dissociation was monitored for 180 seconds. Bulk refractive index differences were corrected for by subtracting the response obtained on the reference flow cell. Here, the anti-BCMA antibodies were flown over an empty surface previously activated and deactivated as described in the standard amine coupling kit. Apparent kinetic constants were derived using the Biacore T200 Evaluation Software (v 1.0, Biacore AB, Uppsala/Sweden), to fit rate equations for 1:1 Langmuir binding by numerical integration, despite the bivalency of the interaction for comparison purposes.

[7] = biological target: T3, recombinant human BCMA Fc(kih); assay: as above
Procedure: as §2

[8] = biological target: T2, recombinant murine BCMA Fc(kih); assay: SPR Biacore, bivalent avidity, BCMA-Fc on chip (Experiment 2)
Procedure: as §2

[9] = biological target: T3, recombinant human BCMA Fc(kih); assay: as above
Procedure: as §2

[10] = biological target: T5, human FolR1 on cells (HeLa, SKOV3, HT-29, transfected HEK) (human, UniProt P15328 25-234); assay: flow cytometry, tumor cell panel
T5 construct: whole, on cells

[11] = biological target: T1, human BCMA on myeloma cells (H929, U266); assay: flow cytometry on BCMA-positive H929 cells, PE anti-human Fc secondary antibody, median fluorescence intensity
Procedure: as §1

[12] = biological target: T6, murine FolR1 monovalent Fc fusion, biotinylated (murine, UniProt P35846 25-232, biotin on C-terminal Avi-tag ; Biotin on the C-terminal Avi-tag of the Fc-knob chain (that part is not in the letters).); assay: SPR ProteOn, Fab analyte, antigen on chip
T6 construct: as m1; also called muFolR1; murine FolR1-Fc; not shown: IgG hinge, Fc-knob and C-terminal Avi-tag fused to the ECD, and the co-expressed Fc-hole chain
Procedure: Immobilization of antigens (ligand): Recombinant antigens were diluted with PBST (10 mM phosphate, 150 mM sodium chloride pH 7.4, 0.005% Tween 20) to 10 μg/ml, then injected at 30 μl/minute in vertical orientation. Injection of analytes: For ‘one-shot kinetics’ measurements, injection direction was changed to horizontal orientation, two-fold dilution series of purified Fab (varying concentration ranges) were injected simultaneously along separate channels 1-5, with association times of 150 or 200 s, and dissociation times of 200 or 600 s, respectively. Buffer (PBST) was injected along the sixth channel to provide an “in-line” blank for referencing. Association rate constants (kₒₙ) and dissociation rate constants (koff) were calculated using a simple one-to-one Langmuir binding model in ProteOn Manager v3.1 software by simultaneously fitting the association and dissociation sensorgrams. The equilibrium dissociation constant (KD) was calculated as the ratio koff/kₒₙ.

T6 sequence (P35846 25-232 limits assumed): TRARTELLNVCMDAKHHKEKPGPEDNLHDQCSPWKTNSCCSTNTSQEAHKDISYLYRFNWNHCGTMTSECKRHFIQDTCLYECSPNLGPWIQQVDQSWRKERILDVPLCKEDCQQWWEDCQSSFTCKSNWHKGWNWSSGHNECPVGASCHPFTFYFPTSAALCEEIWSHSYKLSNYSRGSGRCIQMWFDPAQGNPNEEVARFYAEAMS
T5 sequence (P15328 25-234): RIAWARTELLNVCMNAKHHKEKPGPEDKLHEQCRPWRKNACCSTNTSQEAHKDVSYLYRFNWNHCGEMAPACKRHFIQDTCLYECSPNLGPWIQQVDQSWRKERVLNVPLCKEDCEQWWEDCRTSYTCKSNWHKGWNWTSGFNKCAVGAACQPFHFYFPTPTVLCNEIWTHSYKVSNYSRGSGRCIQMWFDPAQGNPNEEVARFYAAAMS

B1: pSCHLI372-TCB CLC (bispecific antibody)
heavy 1: not shown
heavy 2: EVQLVESGGGLVKPGGSLRLSCAASGFTFSNSGMIWVRQAPGKGLEWVGHIRSKTDGGTTDYAAPVKGRFTISRDDSKNTLYLQMNSLKTEDTAVYYCTTGGSGSFDYWGQGTLVTVSSASTKGPSVFPLAPSSKSTSGGTAALGCLVKDYFPEPVTVSWNSGALTSGVHTFPAVLQSSGLYSLSSVVTVPSSSLGTQTYICNVNHKPSNTKVDKKVEPKSCDKTHTCPPCPAPEAAGGPSVFLFPPKPKDTLMISRTPEVTCVVVDVSHEDPEVKFNWYVDGVEVHNAKTKPREEQYNSTYRVVSVLTVLHQDWLNGKEYKCKVSNKALGAPIEKTISKAKGQPREPQVCTLPPSRDELTKNQVSLSCAVKGFYPSDIAVEWESNGQPENNYKTTPPVLDSDGSFFLVSKLTVDKSRWQQGNVFSCSVMHEALHNHYTQKSLSLSPGK
light: QAVVTQEPSLTVSPGGTVTLTCGSSTGAVTTSNYANWVQEKPGQAFRGLIGGTNKRAPGTPARFSGSLLGGKAALTLSGAQPEDEAEYYCALWYSNLWVFGGGTKLTVLGQPKAAPSVTLFPPSSEELQANKATLVCLISDFYPGAVTVAWKADSSPVKAGVETTTPSKQSNNKYAASSYLSLTPEQWKSHRSYSCQVTHEGSTVEKTVAPTECS
notes: also called pSCHLI372 BCMAxCD3 TCB
EC50 [1]: 345 nM and 65.9 µg/mL
EC50 redirected T-cell killing, U266 [2]: 5700 pM and 1.1 µg/ml
Kd [3]: 344 nM
Kd [4]: 63 nM
EC50 redirected T-cell killing, H929 (Experiment 1) [5]: 450 pM and 0.08 µg/ml
EC50 redirected T-cell killing, H929 (Experiment 2) [5]: 900 pM and 0.17 µg/ml

B2: pSCHLI372 anti-BCMA IgG (antibody, V domains shown)
VH: EVQLVESGGGLVKPGGSLRLSCAASGFTFSNSGMIWVRQAPGKGLEWVGHIRSKTDGGTTDYAAPVKGRFTISRDDSKNTLYLQMNSLKTEDTAVYYCTTGGSGSFDYWGQGTLVTVSS
VL: QAVVTQEPSLTVSPGGTVTLTCGSSTGAVTTSNYANWVQEKPGQAFRGLIGGTNKRAPGTPARFSGSLLGGKAALTLSGAQPEDEAEYYCALWYSNLWVFGGGTKLTVL
notes: also called pSCHLI372 IgG; anti-BCMA IgG pSCHLI372
binding result (Fc fused huTACI-R): no binding
Kd [6]: 25.7 nM
Kd [7]: 3.6 nM
Kd [3]: 1310 nM
Kd [4]: 114 nM
Kd [8]: 42.7 nM
Kd [9]: 8.5 nM

B3: DP47 GS TCB (2+1 Crossfab-IgG P329G LALA inverted, untargeted TCB) (bispecific antibody)
heavy 1: not shown
heavy 2: not shown
light 1: not shown
light 2: QAVVTQEPSLTVSPGGTVTLTCGSSTGAVTTSNYANWVQEKPGQAFRGLIGGTNKRAPGTPARFSGSLLGGKAALTLSGAQPEDEAEYYCALWYSNLWVFGGGTKLTVLSSASTKGPSVFPLAPSSKSTSGGTAALGCLVKDYFPEPVTVSWNSGALTSGVHTFPAVLQSSGLYSLSSVVTVPSSSLGTQTYICNVNHKPSNTKVDKKVEPKSC
notes: negative control; also called DP47 TCB; DP47-TCB
binding result [10]: no binding
binding result [11]: no binding (tested: 500 nM)

B4: 14E4 Fab (Fab, V domains shown)
VH: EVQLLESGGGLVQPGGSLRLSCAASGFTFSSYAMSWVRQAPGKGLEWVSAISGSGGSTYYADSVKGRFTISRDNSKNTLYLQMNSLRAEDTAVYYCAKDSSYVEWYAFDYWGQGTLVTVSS
VL: EIVLTQSPGTLSLSPGERATLSCRASQSVSSSYLAWYQQKPGQAPRLLIYGASSRATGIPDRFSGSGSGTDSTLTISRLEPEDFAVYYCQQPTSSPITFGQGTKVEIK
notes: as m51
Kd [12]: 6.09 nM
